Experimental data from patent US20260049134A1 (UNIVERSITY OF FLORIDA RESEARCH FOUNDATION, published 2026).

T1: HHLA2 (B7-H7)
T1 construct: coated protein in the ELISA; also called HHLA2-Fc (R&D Systems)
T1 chain: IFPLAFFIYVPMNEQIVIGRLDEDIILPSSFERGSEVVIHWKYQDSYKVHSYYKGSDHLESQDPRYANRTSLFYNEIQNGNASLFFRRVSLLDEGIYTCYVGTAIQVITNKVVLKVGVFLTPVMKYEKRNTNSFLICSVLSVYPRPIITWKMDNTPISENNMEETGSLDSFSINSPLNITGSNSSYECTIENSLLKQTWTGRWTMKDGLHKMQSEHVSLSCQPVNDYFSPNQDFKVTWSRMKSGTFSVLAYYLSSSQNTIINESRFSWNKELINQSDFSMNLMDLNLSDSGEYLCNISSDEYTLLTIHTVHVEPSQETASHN

T2: ANXA1
T2 construct: coated protein in the ELISA; also called ANXA1-His (R&D Systems)
T2 chain: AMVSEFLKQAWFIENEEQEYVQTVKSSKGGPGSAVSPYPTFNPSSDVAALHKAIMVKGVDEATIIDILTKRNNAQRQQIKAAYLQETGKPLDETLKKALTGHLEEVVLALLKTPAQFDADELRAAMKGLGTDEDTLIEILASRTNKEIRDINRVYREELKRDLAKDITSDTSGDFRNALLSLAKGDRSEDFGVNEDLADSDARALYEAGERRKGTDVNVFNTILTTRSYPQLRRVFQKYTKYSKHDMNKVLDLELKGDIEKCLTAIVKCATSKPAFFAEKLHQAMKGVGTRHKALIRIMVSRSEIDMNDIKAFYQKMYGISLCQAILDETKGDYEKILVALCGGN

T3: IGSF11 (VSIG3)
T3 construct: coated protein in the ELISA; also called IGSF11-Fc (R&D Systems)
T3 chain: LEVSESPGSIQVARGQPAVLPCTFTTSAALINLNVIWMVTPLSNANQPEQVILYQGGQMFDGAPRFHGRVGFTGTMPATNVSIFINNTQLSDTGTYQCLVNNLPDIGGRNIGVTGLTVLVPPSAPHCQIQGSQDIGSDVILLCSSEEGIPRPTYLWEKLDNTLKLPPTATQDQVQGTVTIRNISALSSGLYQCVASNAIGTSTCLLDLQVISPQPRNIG

T4: PTPRG-Fc (ECD of human PTPRG, aa 20-736, fused to human Fc gamma 1) (human, UniProt P23470 20-736)
T4 construct: Made in-house in Expi293 cells; Used in ELISA and SPR; also called recombinant PTPRG-Fc; PTRPG; not shown: human IgG1 Fc (Fc gamma 1) after the hinge
T4 sequence: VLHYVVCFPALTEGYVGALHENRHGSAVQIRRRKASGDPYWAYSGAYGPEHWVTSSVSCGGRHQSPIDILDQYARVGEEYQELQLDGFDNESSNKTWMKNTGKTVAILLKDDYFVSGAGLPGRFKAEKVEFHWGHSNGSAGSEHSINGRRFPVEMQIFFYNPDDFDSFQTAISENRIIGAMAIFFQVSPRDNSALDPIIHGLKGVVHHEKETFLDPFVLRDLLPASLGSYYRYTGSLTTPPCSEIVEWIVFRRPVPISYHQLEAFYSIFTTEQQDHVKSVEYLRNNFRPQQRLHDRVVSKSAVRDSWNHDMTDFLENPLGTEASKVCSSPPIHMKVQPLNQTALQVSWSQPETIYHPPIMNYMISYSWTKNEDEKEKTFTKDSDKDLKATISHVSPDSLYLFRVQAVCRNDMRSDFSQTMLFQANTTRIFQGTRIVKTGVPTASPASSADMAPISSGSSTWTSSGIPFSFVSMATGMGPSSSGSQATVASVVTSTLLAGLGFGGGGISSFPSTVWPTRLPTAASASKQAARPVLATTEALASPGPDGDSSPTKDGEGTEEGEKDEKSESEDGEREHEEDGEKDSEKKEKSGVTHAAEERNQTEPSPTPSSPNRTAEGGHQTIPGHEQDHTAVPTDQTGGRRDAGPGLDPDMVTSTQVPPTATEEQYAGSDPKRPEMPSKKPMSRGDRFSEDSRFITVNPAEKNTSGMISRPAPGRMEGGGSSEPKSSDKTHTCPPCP


Assays:
[1] = target: T1, HHLA2 (B7-H7); assay: ELISA on coated HHLA2-Fc
Method: (§1) Recombinant purified ECDs (50-150 ng) of each putative target protein were coated, incubated with 150 ng of the indicated primary antibody, and binding was detected using a peroxidase-conjugated anti-human Fab secondary antibody. Heatmap represents averages of technical triplicates. (8B) Target validation via siRNA knockdown. H929 cells were transfected with siRNA pools targeting the putative antibody targets ICAM1, CADM1, and PTPRG. Cells were then subjected to cognate IgG binding analysis via flow cytometry. (NT, non-targeting siRNA).
(§2) ELISA ELISA was conducted as described previously. Briefly, 50-150 ng of antigen was coated overnight in half-area 96-well plates at 4° C., blocked with 3% BSA at 37° C. for 1 h, and 150 ng of chimeric rabbit/human IgG1 was added, incubating for 2 h at 37° C. […] After incubating at 37° C. for 15 min-1 h (depending on intensity of controls), data were acquired using a SpectraMax M5 plate reader (Molecular Devices).

[2] = target: T2, ANXA1; assay: ELISA on coated ANXA1-His
Method: as §1, §2

[3] = target: T3, IGSF11 (VSIG3); assay: ELISA on coated IGSF11-Fc
Method: as §1, §2

[4] = target: T5, PTP4A3 (PRL-3); assay: ELISA on coated His-PTP4A3
T5 construct: coated protein in the ELISA; also called His-PTP4A3 (R&D Systems)
T5 sequence (chain, as listed by the source limits assumed): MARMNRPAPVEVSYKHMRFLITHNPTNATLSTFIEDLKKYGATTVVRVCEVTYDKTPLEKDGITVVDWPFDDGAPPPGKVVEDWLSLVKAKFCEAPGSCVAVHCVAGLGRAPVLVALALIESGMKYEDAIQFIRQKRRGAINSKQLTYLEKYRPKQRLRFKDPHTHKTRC
Method: as §1, §2

[5] = target: T6, APP; assay: ELISA on coated APP-His, 150 ng IgG1; None 0.092
T6 construct: His-tagged; coated protein in the ELISA; also called APP-His (Acro Biosystems)
Method: as §1, §2

[6] = target: T1, HHLA2 (B7-H7); assay: ELISA on coated HHLA2-Fc, 150 ng IgG1; None 0.087
Method: as §1, §2

[7] = target: T7, ICAM1-Fc (R&D Systems) (human, UniProt P05362 28-480); assay: ELISA on coated ICAM1-Fc, 150 ng IgG1; None 0.060
T7 construct: Bought; also called ICAM-1/CD54; not shown: Fc of the bought fusion protein
T7 sequence (P05362 28-480): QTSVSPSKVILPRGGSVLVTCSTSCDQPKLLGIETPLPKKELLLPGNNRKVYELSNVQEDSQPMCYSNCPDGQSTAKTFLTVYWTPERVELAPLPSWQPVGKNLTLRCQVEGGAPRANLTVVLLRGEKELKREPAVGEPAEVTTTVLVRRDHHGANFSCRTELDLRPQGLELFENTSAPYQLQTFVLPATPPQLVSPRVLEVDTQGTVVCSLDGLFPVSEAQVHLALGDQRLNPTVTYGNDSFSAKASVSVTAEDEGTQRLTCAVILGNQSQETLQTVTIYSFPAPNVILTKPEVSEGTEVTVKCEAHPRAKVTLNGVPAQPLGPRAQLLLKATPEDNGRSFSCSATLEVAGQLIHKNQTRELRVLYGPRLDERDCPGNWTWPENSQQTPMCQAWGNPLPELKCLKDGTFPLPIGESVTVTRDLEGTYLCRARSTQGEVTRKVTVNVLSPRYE
Method: as §1, §2

[8] = target: T4, PTPRG-Fc (ECD of human PTPRG, aa …); assay: ELISA on coated PTPRG-Fc, 150 ng IgG1; None 0.117
Method: as §1, §2

[9] = target: T2, ANXA1; assay: ELISA on coated ANXA1-His, 150 ng IgG1; None 0.098
Method: as §1, §2

[10] = target: T5, PTP4A3 (PRL-3); assay: ELISA on coated His-PTP4A3, 150 ng IgG1; None 0.085
Method: as §1, §2

Binder	ELISA Absorbance (405 nm-570 nm) [5]	ELISA Absorbance (405 nm-570 nm) [6]	ELISA Absorbance (405 nm-570 nm) [7]	ELISA Absorbance (405 nm-570 nm) [8]	ELISA Absorbance (405 nm-570 nm) [9]	ELISA Absorbance (405 nm-570 nm) [10]	binding result [1]	binding result [2]	binding result [3]	binding result [4]
HW-97 chimeric rabbit-human IgG1 LA/LA/PG (antibody, V domains shown, Fc-silenced (L234A/L235A/P329G) IgG1, lambda; Alexa Fluor 647-labeled in single-step flow cytometry; Prototype of cluster C-97) VH: QKQLVESGGRLVTPGTPLTLTCTVTGIDLSSHGMSWVRQAPGKGLEWIGVIYPSGSTWYASWARGRFTISKTSTTVDLKMTSLTTEDTATHFCARGDVGGADNNIWGPGTLVTVSS VL: SFVLTQPASVQVDLGQTVSLTCTAETLSRSYASWYQQKPGQAPVLLIYRDTSRPSGVPDRFSGSSSGNTATLTISGAQAGDEADYYCATSDGSGSSYQYVFGGGTQLTVTG	0.067	0.079	0.081	0.096	0.075	0.065	no binding (tested: 150 ng IgG1 per well)	no binding (tested: 150 ng IgG1 per well)	no binding (tested: 150 ng IgG1 per well)	no binding (tested: 150 ng IgG1 per well)
HW-101 chimeric rabbit-human IgG1 LA/LA/PG (antibody, V domains shown, Fc-silenced (L234A/L235A/P329G) IgG1, lambda; Alexa Fluor 647-labeled in single-step flow cytometry; Cluster C-97) VH: QEQLVESGGRLVTPGTPLTLTCKASGFSLGKYDMSWVRQAPGKGLEWIGTIYAGSGSTWYASWAKGRFTISKTSTTVDLKMTSLTTEDTATYFCARDFLGVNSIWGPGTLVTISS VL: SFVLTQPASVQVNLGQTVSLTCTADTLSRSYASWYQQKPDQAPVLLIHRDTSRPSGVPDRFSGSNSGNTATLTISGAQAGDEADYYCATSDGSGSNFHFVFGGGTQLTVTG	0.061	0.069	0.055	0.097	0.066	0.065	no binding (tested: 150 ng IgG1 per well)	no binding (tested: 150 ng IgG1 per well)	no binding (tested: 150 ng IgG1 per well)	no binding (tested: 150 ng IgG1 per well)

The next lines start with results.

ELISA Absorbance (405 nm-570 nm) [5]	ELISA Absorbance (405 nm-570 nm) [6]	ELISA Absorbance (405 nm-570 nm) [7]	ELISA Absorbance (405 nm-570 nm) [8]	ELISA Absorbance (405 nm-570 nm) [9]	ELISA Absorbance (405 nm-570 nm) [10]	Binder	binding result [1]	binding result [2]	binding result [3]	binding result [4]
0.074	0.071	0.498	0.071	0.073	0.078	HW-113 chimeric rabbit-human IgG1 LA/LA/PG (antibody, V domains shown, Fc-silenced (L234A/L235A/P329G) IgG1, lambda; Alexa Fluor 647-labeled in single-step flow cytometry) VH: QKQLVESGGGLVQPGGSLTLTCTVSGFSLNKYYMGWFRQAPGKGLEWIGVISRSGDTYYSSWAKGRFTISKASTTVDLRITSPTTEDTATYFCARDASSPGFHGDRLDLWGQGTLVTVSS VL: SFVLTQPASVQVNLGQTVSLTCTADTLSRSYASWYQQKPGQAPVLLIYRDTSRPSGVPDRFSGSSSGNTATLTISGAQAGDEADYYCATSDGIGSNYLWVFGGGTQLTVTG	no binding (tested: 150 ng IgG1 per well)	no binding (tested: 150 ng IgG1 per well)	no binding (tested: 150 ng IgG1 per well)	no binding (tested: 150 ng IgG1 per well)
0.081	0.072	0.051	0.122	0.065	0.08	HW-81 chimeric rabbit-human IgG1 LA/LA/PG (antibody, V domains shown, Fc-silenced (L234A/L235A/P329G) IgG1, lambda; Alexa Fluor 647-labeled in single-step flow cytometry; Cluster C-45) VH: QKQLVESGGGLVTPGGTLTLTCTVSGFSLSSNGVSWVRQAPGKGLEYIGLIRSIGSTYYATWAKGRFTISKTSTTVDLKITSPTTEDTATYFCARGGYRNGFKLWGPGTLVTVSS VL: QPVLTQSPSVSAALGASAKLTCTLSSAHKTYYIEWYQQQHPGKAPRYLMQLQSDGSYTKGTGVPDRFSGSSSGADRYLIISSVQAEDEADYICGVIDSAVYVFGGGTQLTVTG	no binding (tested: 150 ng IgG1 per well)	no binding (tested: 150 ng IgG1 per well)	no binding (tested: 150 ng IgG1 per well)	no binding (tested: 150 ng IgG1 per well)
